Tested on: MS2 coat protein
Test: apparent KD of MS2 coat protein; designed switch direction (-1 OFF switch, 1 ON switch): -1; higher = weaker reporter binding
In short: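 The reported apparent KD is a per-design median over clusters, from curve fits of normalised cluster fluorescence. Protein titrations used SNAP-549-labelled MS2 coat protein, doubled from 0.7 or 1.5 nM to 3 µM, in Tris-HCl pH 7.5 buffer with KCl, MgCl2, BSA, DTT, tRNA and Tween-20, with no input, 200 uM small-molecule ligand, or an oligonucleotide input. The RNA switches were transcribed on Illumina chips by stalled E. coli RNA polymerase.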

[1] = Eterna round: R95, input ligand: microRNA oligo, concentration not stated
[2] = input ligand: microRNA oligo, concentration not stated
[3] = Eterna round: R95, input ligand: FMN 200 uM
[4] = Eterna round: R95, input ligand: none

Row | Sequence | apparent KD of MS2 coat protein [1] [nM] | apparent KD of MS2 coat protein (input ligand: FMN 200 uM) [nM] | apparent KD of MS2 coat protein (input ligand: none) [nM] | other results
1 | GUCGCUAGAGGAUAUACAAUGGUAUAUGAUCCUAGUGACAUACAUGAGGAUCACCCAUGUAGAAGGCUAGUAAU [Exclusion 2 - 7] (puzzle: Exclusion 2) | 24.8 |  |  | 
2 | GUCGUGCGGCAGUGCUGUACGAGUACAUGAGGAUCACCCAUGUAGGAUAUGGUUCGUUUUGCGUGCUAGAAGGGCGUGCGUUUU [Excl-NG3-LRO18] (Eterna round: R96, puzzle: Exclusion NG 3) |  | 18 | 24.8 | apparent KD of MS2 coat protein [2]: 15.8 nM
3 | GUCGUGUUAGGAUAUGCAUGUGGACGAUGUUCUCCGCCGGUGUAGAAGGAACAUGAGGAUCACCCAUGUGCCUA [Eternabot (L1) Solution 79] (Eterna round: R97, puzzle: Exclusion 4) |  | 45.6 | 52.5 | 
4 | GUCUACGCAGGAUAUAUCCCUCAGGACAUGAGGAUCACCCAUGUCUCCUUAUGCCUUCCCAUAGAAGGGCGUAGAA [Eternabot (L1) Solution 82] (Eterna round: R97, puzzle: Exclusion 5) |  | 12.6 | 13.2 | 
5 | GUCUCGUGAGGAUAUCAUGAUUGACUUAAUUUAUUUUAGCGUGAGAAGGCACAUGAGGAUCACCCAUGUGAUUC [Ex4 - 3 - 5] (puzzle: Exclusion 4) | 17.1 |  |  | 
6 | GUCUCGUGAGGAUAUGACGCUACUUUUUUGUUUUAGUAGAGUCAGAAGGCACAUGAGGAUCACCCAUGUGAUUC [Ex4 - 3 - 4] (puzzle: Exclusion 4) | 56 |  |  | 
7 | GUCUGCACGCUGCGGUCCUACAUGAGGAUCACCCAUGUGGUCUGGUGGCGUGGGUCGCCGGACUUGGCUCGUCUUGA [salish99_S_TOV1_R5_045] (Eterna round: R97, puzzle: Sensor, turn-off variant 1) |  | 16.5 | 15.9 | 
8 | GUCUGCACGCUGCGGUCCUACAUGAGGAUCACCCAUGUGGUCUGGUGGCGUGGGUCGCCGGACUUGGCUCGUCUUGG [salish99_S_TOV1_R5_048] (Eterna round: R97, puzzle: Sensor, turn-off variant 1) |  | 14.8 | 14.7 | 
9 | GUGAAACAUGAGGAUCACCCAUGUGAGGAUAUGAUACUAUGUACUUCGGUACAUAGUAUCAGAAGGCACAGUGA [Ex1-3: 6] (puzzle: Exclusion 1) | 65.4 |  |  | 
10 | GUGAAACAUGAGGAUCACCCAUGUGAGGAUAUGAUUUAGUAAUGAUGAAAGUAAAUAUUCAGAAGGCACAAUGG [Mat - Mod of JL D71] (puzzle: Exclusion 1) | 92.7 |  |  | apparent KD of MS2 coat protein [3]: 74.2 nM; apparent KD of MS2 coat protein [4]: 90.2 nM
11 | GUGAAGAAGUUAGUGGCCUACAUGAGGAUCACCCAUGUGAGGGAAAUGUUGAGGCGAAAGUUGUGUGCUCGUCUGUA [JR_SV3TOV1_Sub040] (puzzle: Sensor v3, turn-off variant 1) | 52.1 |  |  | apparent KD of MS2 coat protein [3]: 27.1 nM; apparent KD of MS2 coat protein [4]: 31.1 nM
12 | GUGACACAUGAGGAUCACCCAUGUGAGGAUAUAUCCGACUAUGAAAGGGUGUAGCAGGAUAGAAGGUACUGGCG [Eternabot (L2) Solution 54] (Eterna round: R97, puzzle: Exclusion 1) |  | 83.1 | 104 | 
13 | GUGACACAUGAGGAUCACCCAUGUGAGGAUAUGAUACUAUGUACUUCGGUACAUAGUAUCAGAAGGCACAGUGA [Ex1-3: 7] (puzzle: Exclusion 1) | 43.2 |  |  | 
14 | GUGAGCAGACGGAGAUCCAACAUGAGGAUCACCCAUGUCUCAUAAGCUUUUUGCUCAUCUUAUUGUACCUUGGUGCU [Mat - Sensor v3 - turn-off var 1 - JL Mod - D20] (puzzle: Sensor v3, turn-off variant 1) | 8.27 |  |  | apparent KD of MS2 coat protein [3]: 291 nM; apparent KD of MS2 coat protein [4]: 253 nM
15 | GUGCUACAUGAGGAUCACCCAUGUCAGGAUAUGCGAAUUUCAUCAAAAGAUGAAAUUUGCAGAAGGGACAACAC [Omei Ex1 A18] (Eterna round: R97, puzzle: Exclusion 1) |  | 88.2 | 38.5 | 
16 | GUGCUAUGAGGAUAUACGUUGGUGGGCAUCUGUGUGCUCCUACAUGAGGAUCACCCAUGUAGAAGGCAUGUCAC [LRO-Excl2-20] (Eterna round: R96, puzzle: Exclusion 2) |  | 22.9 | 14.1 | apparent KD of MS2 coat protein [2]: 9.33 nM
17 | GUGCUAUGAGGAUAUACGUUGGUGGGCAUCUGUGUGCUCCUACAUGAGGAUCACCCAUGUAGAAGGCAUGUCAC [LRO-Excl2-20] (puzzle: Exclusion 2) | 11.9 |  |  | 

Row | Sequence | apparent KD of MS2 coat protein [1] [nM] | apparent KD of MS2 coat protein (input ligand: FMN 200 uM) [nM] | apparent KD of MS2 coat protein (input ligand: none) [nM] | other results
18 | GUGGAACAUGAGGAUCACCCAUGUGAGGAUAUGUGAGAAGGAUUUGAGAUGGAGAGGGACAGAAGGCACUAGGA [JR_Exclu1_Sub083] (puzzle: Exclusion 1) | 39.4 |  |  | apparent KD of MS2 coat protein [3]: 36.3 nM; apparent KD of MS2 coat protein [4]: 55.8 nM
19 | GUGGAACAUGAGGAUCACCCAUGUGAGGAUAUGUGUGAAUAGAGGAGAAGAAGAGAGAACAGAAGGCACGGAGG [JR_Exclu1_Sub066] (puzzle: Exclusion 1) | 73.4 |  |  | apparent KD of MS2 coat protein [3]: 53.3 nM; apparent KD of MS2 coat protein [4]: 93.3 nM
20 | GUGGUACAUGAGGAUCACCCAUGUAAGGAUAUAGUCGUCUGGUGGUCGCGGGUGGUGGCUAGAAGGUGCGUGCG [-19.6, -16.8 kcal, A 19%] (Eterna round: R97, puzzle: Exclusion 1) |  | 93.9 | 125 | 
21 | GUGGUACAUGAGGAUCACCCAUGUCAGGAUAUCGUGUGUUUUUUUUCGGCCGCGCGUGCGAGAAGGGACGUCUU (puzzle: Exclusion 1) | 17.3 |  |  | 
22 | GUGGUACAUGAGGAUCACCCAUGUGAGGAUAUAGUCGGCUGGUGGUCGCGGGUGGUGGCUAGAAGGUGCGUGCG [-19.3, -16.9 kcal, A 18%] (Eterna round: R97, puzzle: Exclusion 1) |  | 171 | 179 | 
23 | GUGUACAGAGGAUAUAUAUGAGCAUGGAAACAUGCAAGAUCACAUGAGGAUCACCCAUGUAGAAGGCUGUACAC [Ex2: 736] (Eterna round: R96, puzzle: Exclusion 2) |  | 861 | 112 | apparent KD of MS2 coat protein [2]: 99.3 nM
24 | GUGUACAGAGGAUAUGCACGAGUAGUUACGAAAGUAACUACACAUGAGGAUCACCCAUGUAGAAGGCUGUACAC [Dot plot directed v1] (puzzle: Exclusion 2) | 13.3 |  |  | 
25 | GUGUACGCAGGAUAUACAUGAGGAUCACCCAUGUGAAUAAGAUAGAAUAAGAUAAAGUGUAGAAGGGCGAGUGU [Excluse me!!! 5 - Jieux - Exclusion 3] (puzzle: Exclusion 3) | 28.3 |  |  | 
26 | GUGUACGGAGGAUAUGCUGGAAUCUAGCGAAGCUAGGUUCCACAUGAGGAUCACCCAUGUAGAAGGCUGUACAC [Dot plot directed A v5] (puzzle: Exclusion 2) | 21.1 |  |  | 
27 | GUGUAGAUAGGAUAUGCUUUGAGCUUAUGAGAGUAUGCUCGACAUGAGGAUCACCCAUGUAGAAGGGUUUACAC [LRO-Excl2-04] (puzzle: Exclusion 2) | 68.5 |  |  | 
28 | GUGUAGGGAGGAUAUACAUGAGGAUCACCCAUGUGAAUAAGAUAGAAUAAGAUAAAGUGUAGAAGGCUUAGUGU [Excluse me!!! 24 - Jieux - Exclusion 3] (puzzle: Exclusion 3) | 53 |  |  | apparent KD of MS2 coat protein [3]: 49.6 nM; apparent KD of MS2 coat protein [4]: 67.9 nM
29 | GUGUCACAUGAGGAUCACCCAUGUGAGGAUAUCAUGCUUCGUAGUAAACUACGAAGUGUGAGAAGGCACAUGAC [Omei Ex1 E1] (Eterna round: R97, puzzle: Exclusion 1) |  | 71 | 47.8 | 
30 | GUGUGAAGUUAGGAUAUGAUCGGACAAGAGCCUUCAGAAGGGACCACAUGAGGAUCACCCAUGUUGUCGGUGGC [Eternabot (L1) Solution 41] (Eterna round: R97, puzzle: Exclusion 6) |  | 20.5 | 18.6 | 
31 | GUGUGACAUGAGGAUCACCCAUGUGAGGAUAUCAUGCUUCGUAGUAAACUACGAAGUGUGAGAAGGCACAUAAC [Omei Ex1 E8] (Eterna round: R97, puzzle: Exclusion 1) |  | 678 | 122 | 
32 | GUGUGACAUGAGGAUCACCCAUGUGAGGAUAUUUAUGUUUGGUUGUUUAGUUGGGCGUGGAGAAGGCGCGUGCG [19% As] (Eterna round: R97, puzzle: Exclusion 1) |  | 65.6 | 85.1 | 
33 | GUGUUGUCAGGAUAUCUUACAUAACAAUCGUUGUUACCAUUGGAGAAGGGACAUGAGGAUCACCCAUGUUAACC [tap-tap-tappy46] (Eterna round: R97, puzzle: Exclusion 4) |  | 18.9 | 19.6 | 
34 | GUUAAACAUGAGGAUCACCCAUGUAAGGAUAUGCUGCGGUCGAGAUGAAGUGAAUGCAGCAGAAGGUACAAUUG [Mat - Mod of JL D53] (puzzle: Exclusion 1) | 148 |  |  | 
